From patent US20220370632A1 (HEIDELBERG PHARMA RESEARCH, published 2022)

B1: chHH1-HDP-(XV) (antibody)
heavy: not shown
light: DIVMTQSHKLLSTSVGDRVSITCKASQDVSTAVDWYQQKPGQSPKLLINWASTRHTGVPDRFTGSGSGTDYTLTISSMQAEDLALYYCRQHYSTPFTFGSGTKLEIKRTVAAPSVFIFPPSDEQLKSGTASVVCLLNNFYPREAKVQWKVDNALQSGNSQESVTEQDSKDSTYSLSSTLTLSKADYEKHKVYACEVTHQGLSSPVTKSFNRGEC
modifications: amatoxin-linker moiety of formula (XV), DAR 3.36; cysteine residues carrying it not stated
B2: chHH1-HDP-(XIII) (antibody)
heavy: not shown
light: B1 light
modifications: amatoxin-linker moiety of formula (XIII); DAR printed as '-'; cysteine residues carrying it not stated
B3: chHH1-HDP-D265C-(XII) (antibody)
heavy: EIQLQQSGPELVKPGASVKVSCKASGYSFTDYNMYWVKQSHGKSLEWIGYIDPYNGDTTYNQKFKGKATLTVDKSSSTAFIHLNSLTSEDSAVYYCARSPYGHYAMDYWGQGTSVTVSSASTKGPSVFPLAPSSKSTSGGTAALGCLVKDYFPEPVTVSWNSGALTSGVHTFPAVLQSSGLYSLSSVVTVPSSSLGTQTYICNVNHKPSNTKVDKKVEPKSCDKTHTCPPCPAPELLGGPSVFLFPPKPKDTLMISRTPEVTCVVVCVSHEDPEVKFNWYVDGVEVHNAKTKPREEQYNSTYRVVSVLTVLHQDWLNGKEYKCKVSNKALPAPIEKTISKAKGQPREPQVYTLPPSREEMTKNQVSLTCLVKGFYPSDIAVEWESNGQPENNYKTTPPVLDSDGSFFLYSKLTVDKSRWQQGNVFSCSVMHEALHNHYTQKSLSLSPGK
light: B1 light
modifications: amatoxin-linker moiety of formula (XII) on heavy chain 265Cys (EU numbering); DAR 2.03
B4: conjugate XXVI (antibody)
heavy: EIQLQQSGPELVKPGASVKVSCKASGYSFTDYNMYWVKQSHGKSLEWIGYIDPYNGDTTYNQKFKGKATLTVDKSSSTAFIHLNSLTSEDSAVYYCARSPYGHYAMDYWGQGTSVTVSSASTKGPSVFPLAPSSKSTSGGTAALGCLVKDYFPEPVTVSWNSGALTSGVHTFPAVLQSSGLYSLSSVVTVPSSSLGTQTYICNVNHKPSNTKVDKKVEPKSCDKTHTCPPCPAPEAAGGPSVFLFPPKPKDTLMISRTPEVTCVVVCVSHEDPEVKFNWYVDGVEVHNAKTKPREEQYNSTYRVVSVLTVLHQDWLNGKEYKCKVSNKALPAPIEKTISKAKGQPREPQVYTLPPSREEMTKNQVSLTCLVKGFYPSDIAVEWESNGQPENNYKTTPPVLDSDGSFFLYSKLTVDKSRWQQGNVFSCSVMHEALHNHYTQKSLSLSPGK
light: B1 light
modifications: amatoxin-linker moiety of formula (XV) on heavy chain 265Cys (EU numbering); DAR 3.15
B5: conjugate XXIV (antibody)
heavy: B4 heavy
light: B1 light
modifications: amatoxin-linker moiety of formula (XIII) on heavy chain 265Cys (EU numbering); DAR printed as '-'
B6: chHH1-HDP-D265C-(XIII) (antibody)
heavy: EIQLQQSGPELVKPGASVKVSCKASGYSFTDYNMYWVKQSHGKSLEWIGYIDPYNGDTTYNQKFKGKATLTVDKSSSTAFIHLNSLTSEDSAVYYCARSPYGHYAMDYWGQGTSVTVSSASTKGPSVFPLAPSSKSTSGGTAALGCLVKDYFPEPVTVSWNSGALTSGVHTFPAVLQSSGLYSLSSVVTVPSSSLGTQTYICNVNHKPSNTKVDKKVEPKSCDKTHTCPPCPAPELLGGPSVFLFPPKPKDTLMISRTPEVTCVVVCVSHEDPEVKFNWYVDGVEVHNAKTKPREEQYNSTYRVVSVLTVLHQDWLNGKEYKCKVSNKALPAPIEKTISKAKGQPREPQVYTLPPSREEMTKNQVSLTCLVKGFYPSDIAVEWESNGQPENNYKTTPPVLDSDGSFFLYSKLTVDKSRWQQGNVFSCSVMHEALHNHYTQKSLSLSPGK
light: B1 light
modifications: amatoxin-linker moiety of formula (XIII) on heavy chain 265Cys (EU numbering); DAR 1.96
B7: chHH1-HDP-D265C-(XV) (antibody)
heavy: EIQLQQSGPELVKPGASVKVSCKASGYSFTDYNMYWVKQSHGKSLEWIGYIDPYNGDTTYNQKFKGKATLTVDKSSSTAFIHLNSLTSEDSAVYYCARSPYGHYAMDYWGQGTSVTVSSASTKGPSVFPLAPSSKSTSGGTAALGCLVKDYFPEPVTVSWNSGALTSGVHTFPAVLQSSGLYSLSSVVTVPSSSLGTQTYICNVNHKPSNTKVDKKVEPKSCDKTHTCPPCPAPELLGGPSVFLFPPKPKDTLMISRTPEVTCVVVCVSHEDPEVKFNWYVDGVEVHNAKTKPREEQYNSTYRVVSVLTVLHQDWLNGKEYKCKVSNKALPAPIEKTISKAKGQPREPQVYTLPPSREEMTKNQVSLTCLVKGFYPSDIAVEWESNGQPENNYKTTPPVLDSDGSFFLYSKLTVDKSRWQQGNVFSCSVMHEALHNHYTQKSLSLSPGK
light: B1 light
modifications: amatoxin-linker moiety of formula (XV) on heavy chain 265Cys (EU numbering); DAR 2.80
B8: chHH1-HDP-LALA-D265C (antibody, human IgG1, kappa, L234A L235A)
heavy: B4 heavy
light: B1 light
notes: Unconjugated chimeric antibody; Expressed in CHO or HEK293 cells; also called anti-CD37 monoclonal antibody chHH1-LALA-D265C; anti-CD37 chHH1-HDP-LALA-D265C

Molecular target: T1, human CD37 on CD37-positive human cell lines (MEC-1, MEC-2, Raji, Ramos) (human, UniProt P11049 1-281)
T1 sequence: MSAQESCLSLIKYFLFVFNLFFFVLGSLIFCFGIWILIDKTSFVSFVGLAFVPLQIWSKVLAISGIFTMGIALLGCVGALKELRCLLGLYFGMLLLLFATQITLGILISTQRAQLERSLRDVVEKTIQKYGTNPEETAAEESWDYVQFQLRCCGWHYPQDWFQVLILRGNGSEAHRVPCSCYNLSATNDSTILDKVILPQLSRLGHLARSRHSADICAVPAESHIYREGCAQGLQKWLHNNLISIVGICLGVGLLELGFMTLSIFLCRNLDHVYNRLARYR
Assay: cell-based or functional assay

| Binder | EC 50 [M], cytotoxicity in vitro on MEC-2 cells | EC 50 [M], cytotoxicity in vitro on Raji cells | EC 50 [M], cytotoxicity in vitro on Ramos cells |
| --- | --- | --- | --- |
| B1 | 6.06e-08 M | 6.1e-10 M | 8.5e-11 M |
| B2 | 5.59e-10 M | 4.8e-10 M | 5.6e-11 M |
| B3 | 2.14e-08 M | 3.9e-09 M | 2.2e-10 M |
| B4 | 7.54e-09 M | 2.04e-09 M | 3.2e-10 M |
| B5 | 1.19e-08 M | 7.5e-10 M | 8.6e-11 M |
| B6 | 5.41e-09 M | 6.2e-10 M | 1.1e-10 M |
| B7 | 1.11e-08 M | 1.63e-09 M | 4.7e-10 M |

Molecular target: T1, human CD37 on CD37-positive human cell …
Assay: flow cytometry (FACS) on Ramos cells, median fluorescence against antibody concentration

| Binder | EC50 (read off the curve) |
| --- | --- |
| B8 | ~1 µg/mL |

Molecular target: T1, human CD37 on CD37-positive human cell …
Assay: flow cytometry (FACS) on MEC-2 cells, median fluorescence against antibody concentration

| Binder | EC50 (read off the curve) |
| --- | --- |
| B8 | ~3 µg/mL |
